Test results published in patent publication US20230272117A1, “ANTI ABCC1 ANTIBODIES AND USES THEREOF” (Kenjockety Biotechnology, Inc., priority 2020, published 2023).
Residue numbers refer to the chain shown, from its start.

B1: C1.831: anti-ABCC1 antibody, VH SEQ ID NO: 16, VL SEQ ID NO: 90 (antibody, listed as Rattus norvegicus, V domains shown)
VH: EVQLTESGPGLVQPSQTLSLTCTVSGFSLTSNGVSWVRQPPGKGLEWIAAISSGGNIYYNSVLKSRLSISRDTSKSQVFLKMSSVQTEDTAIYFCTRERGWNYPFITNGYYFDYWGQGVMVTVSS
VL: EIMLTQSPSLLSASVGDRVTLSCKAGQNINNYLAWYQQKLGEAPKLLIYNANSLQTGIPSRFSGSGSGTDYTLTISSLQPEDVATYFCQQYNSWYTFGAGTKLEIK
B2: C1.787a: anti-ABCC1 antibody, VH SEQ ID NO: 11, VL SEQ ID NO: 86 (antibody, listed as Rattus norvegicus, V domains shown)
VH: EVQLTESGPGLVQPSQTLSLTCTVSGFSLTSNGVSWVRQPPGKGLEWIAAISSGGSTYYNSAFKSRLSISRHTSKSQVLLNMNSLQTEDTAMYFCARHRGYYWSNWGYFDYWGQGVMVTVSS
VL: NIQLTQSPSLLSASVGDRVTLSCKGSQNINNYLAWYQQKLGEAPKLLIYKTNSLQTGIPSRFSGSGSGTDYTLTLSSLHSEDLATYYCCQYNDGYTFGAGTKLELK
B3: C1.851.hu12: humanized anti-ABCC1 antibody, VH SEQ ID NO: 27, VL SEQ ID NO: 105 (antibody, V domains shown)
VH: EVQLQESGPGLVKPSETLSLTCTVSGFSLTNNGVSWIRQPPGKGLEWIAAISSGGNIYYNSAFKSRLTISRDTSKNQVSLKLSSVTAADTAVYYCARHRGYYGYNWGYFDYWGQGTLVTVSS
VL: DIQLTQSPSSLSASVGDRVTITCKGSQNINNYLAWYQQKPGKAPKLLIYKTNSLQTGIPSRFSGSGSGTDYTLTISSLQPEDFATYYCYQYNNGYTFGQGTKLEIK
modifications: humanized sequence
B4: C1.851.hu14: humanized anti-ABCC1 antibody, VH SEQ ID NO: 27, VL printed as SEQ ID NO: 76, LCDR3 SEQ ID NO: 148 (antibody, V domains shown)
VH: B3 VH
VL: DVVMTQTPLSLPVSLGDQASISCRSSQSIVHSNGNTYLEWYLQKPGQSPKLLIYKVSNRFSGVPDRFSGSGTGTDFTLKISRVEAEDLGVYYCFQGSHVPRTFGGGTKLEIK
modifications: humanized sequence; Mus musculus or humanized sequence
B5: C1.851.hu15: humanized anti-ABCC1 antibody, VH SEQ ID NO: 27, VL printed as SEQ ID NO: 77, LCDR3 SEQ ID NO: 149 (antibody, V domains shown)
VH: B3 VH
VL: DVVMTQAPSSLSASLGERISLTCRASQDIYGSLNWFQQKPDGTIKLLIYGTSSLDSGVPKRFSGSRSGSDYSLTISSLESEDFADYYCLQYASSPYTFGGGTKLEIK
modifications: humanized sequence; Mus musculus or humanized sequence
B6: C1.831.hu11: humanized anti-ABCC1 antibody, VH SEQ ID NO: 29, VL SEQ ID NO: 108 (antibody, V domains shown)
VH: EVQLQESGPGLVKPSETLSLTCTVSGFSLTSNGVSWVRQPPGKGLEWIAAISSGGNIYYNSVLKSRLTISRDTSKNQVSLKLSSVTAADTAVYYCTRERGWNYPFITNGYYFDYWGQGTLVTVSS
VL: B3 VL with G25A, S26G, K50N, T51A, Y89Q, N93S, G94W
modifications: humanized sequence
B7: C1.861.hu11: humanized anti-ABCC1 antibody, VH SEQ ID NO: 33, VL SEQ ID NO: 110 (antibody, V domains shown)
VH: EVQLQESGPGLVKPSETLSLTCTVSGFSLTSNGVTWVRQPPGKGLEWIAAISSGGNIYYNSAVKSRLTISRDTSKNQVSLKLSSVTAADTAVYYCTRARGTTTAYVMDAWGQGTTVTVSS
VL: DVQLTQSPSSLSASVGDRVTITCKSSQSLLYSGNQKNYLAWYQQKPGKSPKLLIYWASTRQSGVPSRFSGSGSGTDFTLTISSLQPEDVATYYCQQYYDVLMNMFGGGTKLEIK
modifications: humanized sequence
B8: C1.861.hu21: humanized anti-ABCC1 antibody, VH SEQ ID NO: 34, VL SEQ ID NO: 110 (antibody, V domains shown)
VH: EVQLVESGGGLIQPGGSLRLSCAVSGFSLTSNGVTWVRQPPGKGLEWIAAISSGGNIYYNSAVKSRLTISRDTSKNTVYLQMNSLRAEDTAVYFCTRARGTTTAYVMDAWGQGTTVTVSS
VL: B7 VL
modifications: humanized sequence
B9: C1.844.hu21: humanized anti-ABCC1 antibody, VH SEQ ID NO: 32, VL SEQ ID NO: 109 (antibody, V domains shown)
VH: B8 VH with T35I, A62G, V63L, F94Y, T115L
VL: DIVMTQSPDSLAVSLGERATINCKSSQSLLYSVNQKNYLAWYQQKPGQSPKLLIYWASTRQSGVPDRFSGSGSGTDFTLTISSLQAEDVAVYYCQQYYDTLMKMFGAGTKLELK
modifications: humanized sequence

Tested on: CT26 tumor
Assay: CT26 syngeneic mouse tumor model
Assay type: in vivo
Conditions: CT26, antibody 3 mg/kg + Doxorubicin 2 mg/kg
Protocol: Syngeneic models are allografts immortalized from mouse cancer cell lines, which are then grafted back into the same inbred immunocompetent mouse strain. CT26 is an N-nitroso-N-methylurethane-(NNMU) induced undifferentiated fibroblastic colon carcinoma cell line established from BALB/c mice with aggressive colon carcinoma. C26 cells were purchased from ATCC® (CRL-2638™) and maintained in RPMI-1640 medium supplemented with 10% FBS and 1% penicillin, 1% streptomycin at 37° C., 5% CO2. Cell lines used were authentic and confirmed to be mycoplasma negative. The cells are adherent with a fibroblast morphology and will form tumors and metastases post implantation into syngeneic BALB/c mice or immunocompromised mice.
1×10^6 cells diluted inPBS:Matrigel (1:1) were subcutaneously implanted using a 27G insulin syringe into anesthetized […] old female Balb/c mice under aseptic conditions. All animal maintenance, handling, surveillance, and animal procedures were performed in accordance with an approval from the APLAC protocol.
Once tumors reached 100-150 mm^3, mice were randomized into 6 groups of five mice each: • 1. Control isotype 3 mg/kg, • 2. Control isotype 3 mg/kg+Doxorubicin 2 mg/kg • 3. KNJY C1-831 3 mg/kg • 4. KNJY C1-831 3 mg/kg+Doxorubicin • 5. KNJY C1-787A 3 mg/kg • 6. KNJY C1-787A 3 mg/kg+Doxorubicin 2 mg/kg.
Doxorubicin is soluble in water. All test articles were dosed intraperitoneally twice a week for two consecutive weeks. Antibodies were dosed 4 hr prior to Doxorubicin.
Tumors were measured three times a week using a calibrated Vernier Caliper and tumor volume calculated as per the formula ½*L*S*S, where L is the long axis and S is the short axis of the tumor. Body weights were recorded before treatment started and were continuously monitored throughout the study. Animals were euthanized when turning moribund according to the above-mentioned predefined criteria rapid weight loss, loss of ability to ambulate, labored respiration, or inability to drink or feed to avoid animal suffering.

Molecule	effect of doxorubicin on the inhibition of tumor growth by the antibody
B1	enhanced by doxorubicin
B2	enhanced by doxorubicin

Same assay, conditions: CT26 in BALB/c mice, antibody 3 mg/kg intraperitoneally twice a week for two weeks

Molecule	tumor growth in vivo
B1	inhibit tumor growth
B2	inhibit tumor growth

Target: T1, human ABCC1 (Homo sapiens, UniProt P33527)
T1 sequence (P33527 whole entry): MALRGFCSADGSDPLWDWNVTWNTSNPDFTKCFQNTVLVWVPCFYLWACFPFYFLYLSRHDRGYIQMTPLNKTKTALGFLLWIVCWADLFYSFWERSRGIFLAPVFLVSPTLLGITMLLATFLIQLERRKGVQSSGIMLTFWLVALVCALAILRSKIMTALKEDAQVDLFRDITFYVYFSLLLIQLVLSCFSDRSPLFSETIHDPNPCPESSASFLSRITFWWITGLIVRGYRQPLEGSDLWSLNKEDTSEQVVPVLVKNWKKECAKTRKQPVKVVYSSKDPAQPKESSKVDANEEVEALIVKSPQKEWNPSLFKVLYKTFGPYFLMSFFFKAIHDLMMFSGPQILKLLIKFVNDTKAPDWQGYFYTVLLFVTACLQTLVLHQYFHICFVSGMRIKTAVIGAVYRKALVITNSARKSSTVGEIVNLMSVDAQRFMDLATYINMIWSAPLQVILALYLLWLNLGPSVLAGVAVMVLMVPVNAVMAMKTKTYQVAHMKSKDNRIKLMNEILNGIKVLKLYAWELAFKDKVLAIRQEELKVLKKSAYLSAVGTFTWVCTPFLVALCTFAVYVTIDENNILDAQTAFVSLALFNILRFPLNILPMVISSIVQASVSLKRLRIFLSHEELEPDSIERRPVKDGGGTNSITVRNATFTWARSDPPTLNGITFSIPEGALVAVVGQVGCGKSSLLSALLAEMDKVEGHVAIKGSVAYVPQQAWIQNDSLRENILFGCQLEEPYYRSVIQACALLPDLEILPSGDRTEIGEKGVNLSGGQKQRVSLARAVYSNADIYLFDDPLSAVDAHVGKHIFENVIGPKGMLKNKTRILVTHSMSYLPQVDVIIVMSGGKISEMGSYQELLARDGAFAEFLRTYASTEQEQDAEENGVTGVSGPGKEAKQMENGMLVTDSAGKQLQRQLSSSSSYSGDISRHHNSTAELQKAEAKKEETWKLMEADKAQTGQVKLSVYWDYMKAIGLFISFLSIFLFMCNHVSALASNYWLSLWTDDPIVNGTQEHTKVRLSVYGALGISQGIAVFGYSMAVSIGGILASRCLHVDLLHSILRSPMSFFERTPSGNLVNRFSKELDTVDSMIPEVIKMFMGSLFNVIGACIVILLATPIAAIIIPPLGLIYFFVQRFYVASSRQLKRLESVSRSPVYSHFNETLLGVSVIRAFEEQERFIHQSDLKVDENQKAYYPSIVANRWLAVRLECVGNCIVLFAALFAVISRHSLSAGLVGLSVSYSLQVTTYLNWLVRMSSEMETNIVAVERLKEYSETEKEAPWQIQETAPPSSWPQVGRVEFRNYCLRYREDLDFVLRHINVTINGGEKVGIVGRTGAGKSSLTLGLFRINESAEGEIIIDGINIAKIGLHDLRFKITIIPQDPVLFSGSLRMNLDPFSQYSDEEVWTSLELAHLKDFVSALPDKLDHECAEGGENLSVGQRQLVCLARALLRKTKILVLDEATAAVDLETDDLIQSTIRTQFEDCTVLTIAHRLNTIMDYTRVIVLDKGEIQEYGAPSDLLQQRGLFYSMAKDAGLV
Assay: Titration binding to human ABCC1-overexpressing rat C6 glioma cells (FACS)
Design: expressed in transfected cells
Conditions: not given

Molecule	binding to C6 cells overexpressing human ABCC1
B3	retain the ability to bind both human and cynomolgus ABCC1
B4	retain the ability to bind both human and cynomolgus ABCC1
B5	retain the ability to bind both human and cynomolgus ABCC1

Target: T2, cynomolgus ABCC1 (Macaca fascicularis, UniProt Q864R9)
T2 sequence (Q864R9 whole entry): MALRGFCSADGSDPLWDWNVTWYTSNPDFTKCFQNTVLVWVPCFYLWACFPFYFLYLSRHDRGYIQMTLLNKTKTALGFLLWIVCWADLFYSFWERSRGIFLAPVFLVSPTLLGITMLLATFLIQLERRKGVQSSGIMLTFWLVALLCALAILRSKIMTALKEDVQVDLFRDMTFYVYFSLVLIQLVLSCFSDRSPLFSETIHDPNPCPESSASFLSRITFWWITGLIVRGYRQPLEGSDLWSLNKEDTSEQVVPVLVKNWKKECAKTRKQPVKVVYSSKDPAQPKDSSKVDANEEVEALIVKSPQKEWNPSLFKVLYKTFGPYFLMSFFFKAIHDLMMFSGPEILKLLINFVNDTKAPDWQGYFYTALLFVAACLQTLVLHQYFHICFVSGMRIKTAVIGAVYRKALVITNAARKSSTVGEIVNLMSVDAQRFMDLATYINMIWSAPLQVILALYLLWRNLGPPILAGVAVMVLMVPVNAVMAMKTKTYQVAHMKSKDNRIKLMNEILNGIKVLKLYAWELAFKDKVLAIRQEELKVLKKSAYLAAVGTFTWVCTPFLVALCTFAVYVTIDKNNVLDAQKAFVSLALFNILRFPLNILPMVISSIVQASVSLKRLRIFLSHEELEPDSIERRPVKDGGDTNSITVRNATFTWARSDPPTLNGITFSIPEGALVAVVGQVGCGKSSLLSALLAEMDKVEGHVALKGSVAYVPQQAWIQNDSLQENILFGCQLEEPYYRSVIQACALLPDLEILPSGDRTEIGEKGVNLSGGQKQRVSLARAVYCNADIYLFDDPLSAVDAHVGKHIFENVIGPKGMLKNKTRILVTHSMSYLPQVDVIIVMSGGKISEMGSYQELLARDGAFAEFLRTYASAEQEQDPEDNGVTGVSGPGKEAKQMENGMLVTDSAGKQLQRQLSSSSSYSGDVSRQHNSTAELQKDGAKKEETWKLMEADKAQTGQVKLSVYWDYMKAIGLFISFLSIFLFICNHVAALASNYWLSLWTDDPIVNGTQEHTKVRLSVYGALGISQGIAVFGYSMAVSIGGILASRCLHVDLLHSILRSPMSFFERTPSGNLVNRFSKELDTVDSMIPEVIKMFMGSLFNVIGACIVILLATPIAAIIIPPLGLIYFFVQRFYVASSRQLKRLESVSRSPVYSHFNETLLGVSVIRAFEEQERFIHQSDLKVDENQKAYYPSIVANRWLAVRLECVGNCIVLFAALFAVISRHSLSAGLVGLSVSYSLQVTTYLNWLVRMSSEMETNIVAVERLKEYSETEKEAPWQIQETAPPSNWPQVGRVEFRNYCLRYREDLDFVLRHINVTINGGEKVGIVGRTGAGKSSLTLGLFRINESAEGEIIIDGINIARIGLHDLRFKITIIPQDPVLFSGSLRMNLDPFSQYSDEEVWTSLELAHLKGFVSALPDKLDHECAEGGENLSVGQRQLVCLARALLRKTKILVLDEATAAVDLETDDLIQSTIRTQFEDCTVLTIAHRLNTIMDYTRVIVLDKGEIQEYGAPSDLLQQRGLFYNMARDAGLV
Assay: Titration binding to cynomolgus ABCC1-overexpressing rat C6 glioma cells (FACS)
Design: expressed in transfected cells
Conditions: not given

Molecule	binding to C6 cells overexpressing cynomolgus ABCC1
B3	retain the ability to bind both human and cynomolgus ABCC1
B4	retain the ability to bind both human and cynomolgus ABCC1
B5	retain the ability to bind both human and cynomolgus ABCC1

Target: T2, cynomolgus ABCC1
Assay: Titration binding assay of humanized antibodies (FIGS. 8A-8C), cynomolgus ABCC1
Design: expressed in transfected cells; host or cells: 293T cells
Conditions: cell line not stated
Protocol: (§1) Binding titration of recombinant antibodies to KPC1 transfectants was performed by serial dilution of antibodies from about 666 nM, Diluted antibody in flow cytometry buffer was incubated with cells on ice for 30 min. After 2 washes with flow cytometry buffer, bound antibody was detected with PE-labeled F(ab′)2 fragment goat anti-human IgG (Jackson ImmunoResearch) diluted 1:200 in flow cytometry buffer and incubated with cells for 20 min on ice. After 2 washes with flow cytometry buffer fluorescence was measured on an Attune NxT flow cytometer. Data were analyzed with GraphPad Prism 8.0 software to determine EC50's.

binding to cynomolgus ABCC1 in the titration binding assay	Molecule
bind both human and cynomolgus ABCC1	B6
bind both human and cynomolgus ABCC1	B7
bind both human and cynomolgus ABCC1	B8
bind both human and cynomolgus ABCC1	B9

Target: T1, human ABCC1
Assay: ABCC1 efflux assay in HEK293T cells expressing human ABCC1
Assay type: cell-based
Design: expressed in transfected cells; host or cells: 293T (HEK 293T) cells
Conditions: HEK293T cells expressing human ABCC1, Calcein AM fluorescence
Protocol: HEK 293T cells expressing human ABCC1 were washed several times and aliquoted into 96-well plates as 50 μl aliquots/well at a cell density of 1×10^6 cells per ml in phenol red-free DMEM. Cells were mixed with 50 μl antibodies and incubated for 1.5 h at 37° C. The cells were then washed twice and finally resuspended in […] PBS. Calcein AM fluorescence was measured by flow cytometry.

Molecule	inhibition of the efflux function of the ABCC1 transporter
B6	significantly inhibit the efflux function
B7	significantly inhibit the efflux function
B8	significantly inhibit the efflux function
B9	significantly inhibit the efflux function

Target: T1, human ABCC1
Assay: Titration binding assay of humanized antibodies (FIGS. 8A-8C), human ABCC1
Design: expressed in transfected cells; host or cells: 293T (HEK 293T) cells
Conditions: cell line not stated
Protocol: as §1

binding to human ABCC1 in the titration binding assay	Molecule
bind both human and cynomolgus ABCC1	B6
bind both human and cynomolgus ABCC1	B7
bind both human and cynomolgus ABCC1	B8
bind both human and cynomolgus ABCC1	B9
